The values that follow come from US20190194299A1.

For test [1], the target named is Human DPP4 on stable 293T cells (293T-hDPP4) (human) (UniProt P27487).
For test [2], the target named is S1(349-590)-hFc (MERS-CoV; human) (UniProt K9N5Q8). Nature of the test: BLI (Octet), wild type RBD-hFc. Background: Biolayer interferometry detects binding as a change in optical thickness at a sensor tip.

“S1(349-590)-hFc (from UniProt K9N5Q8 349-590) (Fc fusion)”: the EC50 in test [1] was 0.015 µg/mL.

In the case of “Recombinant soluble human DPP4 (from UniProt P27487 29-766) (receptor)”, the equilibrium dissociation constant (Kd) in test [2] came out at 21.4 nM.

As a reminder, the EC50 is the midpoint of the concentration-response curve. A low value points to an effect from little substance. As a reminder, the Kd is the free concentration of one partner at which half of the binding sites on the other are occupied at equilibrium, for simple one-to-one binding.
